From paper PMC1976452 come the findings set out here.

Like-named read-outs stand apart in the source and are kept apart here.

The target of series [1] is T1, thrombin (Amersham Biosciences) (human, UniProt P00734;P00734 315-363;364-622). As to the kind of experiment: filter binding.
The target of series [2] is T1, thrombin (Amersham Biosciences). The series is described as follows: filter binding. The source holds these as a separate data set.

On to GTCTCTTGTGTGACTCTGGTAAC (ssDNA) [P8 ssDNA control], for which the binding result in series [1] is reported as “no binding”.

GGACUUCGGUCC (structured_RNA) [H1 RNA hairpin control]: the binding result in series [2] was “no binding”.
